Target: c-kit (mouse) (UniProt P05532)

expansion in cell number after 7 days of coculture on 7-4 stroma (AA4+ Kit+ Flk-2+ cells) (not stated (cell number, Table 2)): 210
Substance: kit ligand

— US5997865
